The record followed here is patent US20190233519A1 (NANJING LEGEND BIOTECH, published 2019).

The target of assay [1] is T1, biotin-labeled hCTLA-4/Fc protein (human, UniProt P16410 37-161, biotin label in the FACS competition assays (sites not given)).
T1 construct: also called CTLA-4 ECD (CTLA-4-Fc); CTLA-4-Fc (GenScript, Z03373-50)
Description: FACS competition, biotin hCTLA-4/Fc on CHO cells expressing human B7-1.

For assay [2], the target named is T2, CTLA-4-His protein (Homo sapiens (Human), UniProt P16410 37-161).
T2 construct: also called CTLA-4-His fusion protein; not shown: His tag
Description: SPR, antibody immobilised on CM5, CTLA-4-His as analyte.

T1 sequence (P16410 37-161): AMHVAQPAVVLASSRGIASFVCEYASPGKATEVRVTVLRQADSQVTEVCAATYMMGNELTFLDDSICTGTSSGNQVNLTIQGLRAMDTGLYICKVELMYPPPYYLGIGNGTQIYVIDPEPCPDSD
T2 sequence (P16410 37-161 limits assumed): as the sequence (P16410 37-161) above

B1: A34311 sdAb (VHH)
VHH: QVKLEESGGGLVLPGESLRLSCEASGRTITTITMGWFRQAPGKERQFVASHSWTDNNPYYADSVKGRFIISRDNAGNRVYLQMHSLEPEDTAVYYCAATARRSFVGRQWYTEARQYDYWGQGTQVTVSS
notes: also called A34311 (WT)
The term EC50 denotes the concentration needed to bring the measured effect to its halfway point. A low value points to a more potent agent. Consider B1, for which the EC50 in assay [1] was ~14.5 nM.

B2: BCP-311K (A34311-9GS-Keytruda) (bispecific antibody, human IgG4 S228P, kappa)
heavy: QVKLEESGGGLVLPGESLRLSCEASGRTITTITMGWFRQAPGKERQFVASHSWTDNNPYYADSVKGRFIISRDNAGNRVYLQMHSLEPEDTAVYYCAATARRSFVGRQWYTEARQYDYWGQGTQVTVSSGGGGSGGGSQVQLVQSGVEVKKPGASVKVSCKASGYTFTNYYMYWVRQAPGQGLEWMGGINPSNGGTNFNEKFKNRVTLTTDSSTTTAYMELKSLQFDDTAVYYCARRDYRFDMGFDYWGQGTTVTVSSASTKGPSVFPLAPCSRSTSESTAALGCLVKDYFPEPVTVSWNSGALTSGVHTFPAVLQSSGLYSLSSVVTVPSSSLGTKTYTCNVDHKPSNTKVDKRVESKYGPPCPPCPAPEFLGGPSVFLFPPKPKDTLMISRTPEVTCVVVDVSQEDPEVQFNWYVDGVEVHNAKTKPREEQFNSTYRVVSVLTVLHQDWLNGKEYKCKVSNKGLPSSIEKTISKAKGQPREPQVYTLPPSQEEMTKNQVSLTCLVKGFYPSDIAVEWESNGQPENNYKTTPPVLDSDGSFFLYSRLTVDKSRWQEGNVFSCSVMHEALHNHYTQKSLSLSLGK
light: EIVLTQSPATLSLSPGERATLSCRASKGVSTSGYSYLHWYQQKPGQAPRLLIYLASYLESGVPARFSGSGSGTDFTLTISSLEPEDFAVYYCQHSRDLPLTFGGGTKVEIKRTVAAPSVFIFPPSDEQLKSGTASVVCLLNNFYPREAKVQWKVDNALQSGNSQESVTEQDSKDSTYSLSSTLTLSKADYEKHKVYACEVTHQGLSSPVTKSFNRGEC
B2: the binding result in assay [2] is recorded as “binds”.
